Numbering of substitutions follows the chain as printed.
B1: 373_C10 (antibody, V domains shown)
VH: EVQLLESGGGLVQPGGSLRLSCAASGFTFSSYSMNWVRQAPGKGLEWVAGINYNGGYTSYADSVKGRFTISRDNSKNTLYLQMNSLRAEDTAVYYCARGANWHDTALDYWGQGTLVTVSS
VL: DIQMTQSPSSLSASVGDRVTITCRASQSILTYVNWYQQKPGKAPKLLIYAATSRASGVPSRFSGSGSGTDFTLTISSLQPEDFATYYCQQSYDNPLTFGGGTKVEIK
B2: 373_F12 (antibody, V domains shown)
VH: B1 VH with A49S, G50N, S59G
VL: B1 VL with L30S, V33L, L47V, D93E, N94T
B3: 373_D03 (antibody, V domains shown)
VH: B1 VH with A49S
VL: B1 VL with L30V, T31S, V33L, R54L, N94T
B4: 373_H09 (antibody, V domains shown)
VH: B1 VH with S33G, G50S, G55S, T58K, A106H
VL: B1 VL with L30I, V33L, L47V, Y92D, N94S
B5: 368_A02 (antibody, V domains shown)
VH: B1 VH with S30D, S33G, T58K, G99A, A106H
VL: B1 VL with L30I, T31S, L47V, N94T
B6: 373_F11 (antibody, V domains shown)
VH: B1 VH with S30D, S33G, N35H, A49S, G55S, A106H
VL: B1 VL with L30V, T31S, D93N, N94L
B7: 373_G08 (antibody, V domains shown)
VH: B1 VH with S30D, A49S, G50N
VL: B1 VL with V33L, R54L, N94S
B8: 373_D12 (antibody, V domains shown)
VH: B1 VH with S30D, A49S, G50S, G55S, T58K, S59G, A106H
VL: B1 VL with T31S, D93S, N94L
B9: 373_H03 (antibody, V domains shown)
VH: B1 VH with A49S, G55S, T58K
VL: B1 VL with T31S, V33L, A51T, D93E
B10: 373_F08 (antibody, V domains shown)
VH: B1 VH with A49S
VL: B1 VL with V33L, N94T
B11: 373_E10 (antibody, V domains shown)
VH: B1 VH with S31D, A49S
VL: B1 VL with L47V, A55H, D93E, N94T
B12: 374_A09 (antibody, V domains shown)
VH: B1 VH with A49S, G50S, T58K, S59G, A106H
VL: B1 VL with R54L, N94S
B13: 373_H07 (antibody, V domains shown)
VH: B1 VH with A106H
VL: B1 VL with L30V, V33L, T52S, R54L, A55Q, N94S
B14: 374_A06 (antibody, V domains shown)
VH: B1 VH with A49S, G50S, G55S, A106H
VL: B1 VL with T31S, V33L, L47V, N94S
B15: 367_C01 (antibody, V domains shown)
VH: B1 VH with S30D, S31D, A49S, T58K, G99S, A106H
VL: B1 VL with V33L, L47V, A51T, R54L, A55H, N94T
B16: 367_E01 (antibody, V domains shown)
VH: B1 VH with S33G, T58K, G99S
VL: B1 VL with T31S, A51T, N94L
B17: 367_C05 (antibody, V domains shown)
VH: B1 VH with S30D, S31D, S33G, A49S, G50S, S59G, G99S, A106H
VL: B1 VL with T31S, L47V, A55H, N94L
B18: 367_D10 (antibody, V domains shown)
VH: B1 VH with S30D, S33G, A49S, G50N, G99S
VL: B1 VL with L30I, T31S, V33L, L47V, N94T

What follows are binders tested against human Fc (human) (assay: ELISA, negative control).

| optical density [OD] | Binder |
| --- | --- |
| 0.318 | B1 |
| 0.158 | B2 |
| 0.18 | B3 |
| 0.166 | B4 |
| 0.376 | B5 |
| 0.204 | B6 |
| 0.172 | B7 |
| 0.224 | B8 |
| 0.172 | B9 |
| 0.202 | B10 |
| 0.188 | B11 |
| 0.231 | B12 |
| 0.199 | B13 |
| 0.173 | B14 |

What follows are binders tested against Human Fc (human) (assay: ELISA, negative control).

| optical density [OD] | Binder |
| --- | --- |
| 0.348 | B15 |
| 0.351 | B16 |
| 0.255 | B17 |
| 0.251 | B18 |
